Experimental data taken from the nanobody polyreactivity screen of Harvey et al. (2022).

Assay: yeast display, Sf9 membrane polyspecificity reagent, FACS + sequencing; frameworks hold sequencing errors
Method in brief: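 Synthetic nanobody libraries on Saccharomyces cerevisiae BJ5465 were galactose-induced for 36–48 hours, stained 1 hour at 4 °C with 10% biotinylated, detergent-solubilized Sf9 membrane reagent and enriched on streptavidin microbeads. FACS then separated cells into low and high (top ~1%) gates by anti-HA (expression) and streptavidin (reagent binding) fluorescence. Genes were colony-PCR amplified, MiSeq 2 × 250 sequenced and CDR-length filtered. A clone's polyreactivity label is that of its gate of origin.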

Sequence	polyreactivity (PSR sort gate)
QVQLVESGGGLVQAGGRLRLSCAASGRTFSKYPLGWYRQAPGKERELVAAITSGGGTYYADSVKGRFTFSRDNAKNPVYLQMHSRKPEDTAVYYCAVSGTTVSTYDYWGQCTQVTVSS	low polyreactivity
QVQLVESGGGLVQAGGRLRLSCAASGRTFVYNALGWYRQAPGKERELVAAISQSGGSTYYADSVKGRFTISRDNAKITVYFQMNSLKPEDTAVYYCADRYKTGSYVRYNFWGQGTQVTVSS	high polyreactivity
QVQLVESGGGLVQAGGRLRLSCAASGRTFYGYAMGWYRQAPGKEREMVAAITQRGVSTYADSVKGRFTISRDNAKNTVYLQMNSLKQEDTAVYYCAADQIERFRDQTWDFDYWGQGTQVTVSS	low polyreactivity
QVQLVESGGGLVQAGGRLRLSCAASGSFFGGSGMGWYRQAPGKERELVAAITSGSSTYYADSVNGRFTISRDNAKNTVYLQMNSLKPEDSAVYYCAARPYPHSAYEGDYWGRGTQVTVSS	low polyreactivity
QVQLVESGGGLVQAGGRLRLSCAASGSIFAGYAMGWYRQAPGKERELVAAITSSCGSTYYADSVKGRFTISRDNAKNTVYLQMNSLNPEDTAVYYCAKDKLIFYRVGSDYWGQGTQVTVSS	low polyreactivity
QVQLVESGGGLVQAGGRLRLSCAASGSIFCVNAMGWSRQAPGKERELVATITGSSGITYYADSVKGRFTISRVNAKNTVYLQMNSVKPEDTAVYYCAAVLLKFAYNYNYWGQGTQVTVSS	low polyreactivity
QVQLVESGGGLVQAGGRLRLSCAASGSIFGANTMVWYRQAPGKERELVAAISSGGNTYYADSVKGRFTISRDNAKNTVYLQMNSLKPEDTAVYYCNAQTRYRYQYGYLGGTGYNYWGQGTQVTVSS	low polyreactivity
QVQLVESGGGLVQAGGRLRLSCAASGSIFGRYAMGRYRQAPGKERELVAAITWSATSTYYADYVKGRFTISRDNAKNTVYLQMNSLKPEDTAVYYCAVRTPRARYTYGSWGQGTQVTVSS	high polyreactivity
QVQLVESGGGLVQAGGRLRLSCAASGSIFLFYAMGWYRKAPVKERELVARITSSGGTTYYADSVKGRFTISRDNAKNTVYLQMNSLKPEDTAVYYCAASYFIYHYDFDYWGQGTQVTVSS	high polyreactivity
QVQLVESGGGLVQAGGRLRLSCAASGSIFNYYARGWYRQAPGKERELVAAIPTSGGNPYYADSVKGRFTISRDNAKNTVKLQMNSLKPEDTALYNCAADYWASGGEYDYWGQGTQVTVSS	low polyreactivity
QVQLVESGGGLVQAGGRLRLSCAASGSIFQKNAMGWYRQAPGKERELVAVITRGGTSTYYADSVKGRFTISRDNAKNTVYLQMNSLKTEDTAVYYCAAKADKRLDYWGQGTQVTVSS	low polyreactivity
QVQLVESGGGLVQAGGRLRLSCAASGSIFRYYDMGWYRQATGKEREFVAAISYRGGTTYYADSVKGRFTISRDNAKNTVYLQMNSLKPEDTAVYYCAKETYRSSSYDWYDYWGQGTQVTVSS	low polyreactivity
QVQLVESGGGLVQAGGRLRLSCAASGSIFSIYPMGWYRQAPGKERDFVASITVTDGSTYYADSVKGRFTISRDNAKNTVYLQMNSLKPEDTADYYCNADGWYALYEWLAVSGYYWGQGTQVTVSS	low polyreactivity
QVQLVESGGGLVQAGGRLRLSCAASGSIFSRNAMGRYRQATGKESELVAAISRGGSTNYADSVKGRFTISRDNAKNTVYLQMNSLKPEDTAVYYCANVGRRSWYRWLGPLWYGGMDYWGQGTQVTVSS	low polyreactivity
QVQLVESGGGLVQAGGRLRLSCAASGSIFTVYSMGWYRQAPGKERELVASIRFSSGRTYYADSVKGRFTISRDNAKNTVYLQMNSLKPEDTAVYYCAAETVSWYRYYYWGQGTQVTVSS	high polyreactivity
QVQLVESGGGLVQAGGRLRLSCAASGSIFYSNAMGWYRQAPGKEREFVAAISAGGGSTYYADSVKGRFTISRDNAKNTVYLQMNSMKPEDTAVYFCAAQPYKIIYPYDYWGQGTQVTVSS	low polyreactivity
QVQLVESGGGLVQAGGRLRLSCAASGSIILFKDMGWYGQAPGKERELVADITWSGGSTYYADSVKGRFTISCDNAKNTVYLQMHSLKPEDTAVDYCADDPDYYFTRGNYQWGYYWGQGTQVTVSS	low polyreactivity
QVQLVESGGGLVQAGGRLRLSCAASGSTFFAYAMGWYRQAPGKQRELVAAITGRGSTYYADSVKGRFTISRDNAKNTVYLQMNSLKAEDTAVYYCAAQRSRRYYRLDFWGQGTQVTVSS	high polyreactivity
QVQLVESGGGLVQAGGRLRLSCAASGSTFGTYAMGWYRHAPGKERELVAAITRSGGSTYYADSVKGRFTISRDNAKNTVYLQMNSLKPDDTAVFYCAAVSKGYYYWGQGTQVTVSS	high polyreactivity
QVQLVESGGGLVQAGGRLRLSCAASGSTFGYYAMGWYRQAPGKERELVAAITFSVGGTYYADSVKGRFTISRDNAKNTVYLQMNSLKPEDTAVYYCNVDYYVPPAGVTRTGDDVYWGKGTQVTVSS	low polyreactivity
QVQLVESGGGLVQAGGRLRLSCAASGSTFLQNAMGWYRQAPGKEREFVAAISRSGGSTYYADSVKGRFTISRDNAKNTVYLQMNSLKPEDTAVYYCARRYWPGSAYWIYDYWGQGTQVTVSS	high polyreactivity
QVQLVESGGGLVQAGGRLRLSCAASGSTFLVYAMGWYRQAPGKERELVAAIDSGVSTYYADSVKGLFTISRDNAKNTVYLQMNSLKPEDTAVYYCNGYDYWGQGTQVTVSS	low polyreactivity
QVQLVESGGGLVQAGGRLRLSCAASGSTFRSNVMGRYRQATGKERELVAAITSGSITNYADSVKGRFTISRDNAKNTVYLQMNSLKPEDTAVYYCAVETYVYGRMGYLGQGTQVTVSS	high polyreactivity
QVQLVESGGGLVQAGGRLRLSCAASGSTLEINGMGWYRQAPGKEREFVADISIGGDTNYADSVKGRFTISRDNAKNTEMNSLKPEDTAVYYCNTDYFGSLVVVIFDYWGQGTQVSVSS	low polyreactivity
QVQLVESGGGLVQAGGRLRLSCAASGSTLYAYGMGWYRQAPGKERELVAAIRTGGSTYYADSVKGRFTISRDNAKITVYLQMNSLKPEDTAVYYCAADHGYQYGYWGQGTQVTVSS	low polyreactivity
QVQLVESGGGLVQAGGRLRLSCAASGSTSVYYARGWYRQAPGKERELVAGITSGGNTNYADSVKGRFTISRDNAKNTVYFQMISLNPEDTSVYYCNAVYIVTVGWIRLGSYYYWGQGTQVTVSS	low polyreactivity
QVQLVESGGGLVQAGGRLRLSCAASGSTVVFNAMGWYRQAPGKERELVAAISKSGGSTYYADSVKGRFTISRDNAKNTVYLQMNSLKPEDTAVYYCNRVSRKILDGDYDYWGQGTQVTVSS	high polyreactivity
QVQLVESGGGLVQAGGRLRLSCAASGYIFGWNAMGWYRQAPGKERELVAAISSGGNTKYADSVKGRFTISRDNAKNTVYLQMNSLKPEDTAVYYCNADFRVYIPHVPYFVDFDYWGQGTQVTVSS	low polyreactivity
QVQLVESGGGLVQAGGRLRLSCAATGRTFLAYAMGWYREAPGKERELVAAITIGGGTYADSVKGRFTISRDNAKNTVYLQMNSLKQEDTAVYYCAKPGWYDGDYWGQGTQVTVSS	low polyreactivity
QVQLVESGGGLVQAGGRLRLSCAATGSIFRGYAMGWYRQAPGKERELVAAISYRGGSTYYADSVKGRFTISRDNAKNTVYLQMNSLKPEDTAVDYWAAVYSHYWWFDYWGQGTQVTVSS	high polyreactivity
